According to US10919943B2, “Mutant proteins enabling agrochemical control of plant gene expression” (The Regents of the University of California, priority 2016, dated 2021):
Numbering of substitutions follows the chain as printed. Names may count otherwise.

B1: F159Q: PYR1 mutant (protein, UniProt O49686 1-191, looked up, variant F159Q)
Abscisic acid receptor PYR1: MPSELTPEERSELKNSIAEFHTYQLDPGSCSSLHAQRIHAPPELVWSIVRRFDKPQTYKHFIKSCSVEQNFEMRVGCTRDVIVISGLPANTSTERLDILDDERRVTGFSIIGGEHRLTNYKSVTTVHRFEKENRIWTVVLESYVVDMPEGNSEDDTRMQADTVVKLNLQKLATVAEAMARNSGDGSGSQVT
B2: K63P: PYR1 mutant (protein, UniProt O49686 1-191, looked up, variant K63P)
Abscisic acid receptor PYR1: B1 Abscisic acid receptor PYR1 with K63P, Q159F
B3: S85W: PYR1 mutant (protein, UniProt O49686 1-191, looked up, variant S85W)
Abscisic acid receptor PYR1: B1 Abscisic acid receptor PYR1 with S85W, Q159F
B4: F61Q: PYR1 mutant (protein, UniProt O49686 1-191, looked up, variant F61Q)
Abscisic acid receptor PYR1: B1 Abscisic acid receptor PYR1 with F61Q, Q159F
B5: F159D: PYR1 mutant (protein, UniProt O49686 1-191, looked up, variant F159D)
Abscisic acid receptor PYR1: B1 Abscisic acid receptor PYR1 with Q159D
B6: F159G: PYR1 mutant (protein, UniProt O49686 1-191, looked up, variant F159G)
Abscisic acid receptor PYR1: B1 Abscisic acid receptor PYR1 with Q159G
B7: T162P: PYR1 mutant (protein, UniProt O49686 1-191, looked up, variant T162P)
Abscisic acid receptor PYR1: B1 Abscisic acid receptor PYR1 with Q159F, T162P
B8: F61K: PYR1 mutant (protein, listed as Arabidopsis thaliana)
chain: B1 Abscisic acid receptor PYR1 with F61K, Q159F
B9: I62D: PYR1 mutant (protein, UniProt O49686 1-191, looked up, variant I62D)
Abscisic acid receptor PYR1: B1 Abscisic acid receptor PYR1 with I62D, Q159F
B10: I62K: PYR1 mutant (protein, UniProt O49686 1-191, looked up, variant I62K)
Abscisic acid receptor PYR1: B1 Abscisic acid receptor PYR1 with I62K, Q159F
B11: I84L: PYR1 mutant (protein, UniProt O49686 1-191, looked up, variant I84L)
Abscisic acid receptor PYR1: B1 Abscisic acid receptor PYR1 with I84L, Q159F
B12: S85A: PYR1 mutant (protein, UniProt O49686 1-191, looked up, variant S85A)
Abscisic acid receptor PYR1: B1 Abscisic acid receptor PYR1 with S85A, Q159F
B13: F159Y: PYR1 mutant (protein, UniProt O49686 1-191, looked up, variant F159Y)
Abscisic acid receptor PYR1: B1 Abscisic acid receptor PYR1 with Q159Y
B14: I62W: PYR1 mutant (protein, UniProt O49686 1-191, looked up, variant I62W)
Abscisic acid receptor PYR1: B1 Abscisic acid receptor PYR1 with I62W, Q159F
B15: F61D: PYR1 mutant (protein, UniProt O49686 1-191, looked up, variant F61D)
Abscisic acid receptor PYR1: B1 Abscisic acid receptor PYR1 with F61D, Q159F
B16: I62Y: PYR1 mutant (protein, UniProt O49686 1-191, looked up, variant I62Y)
Abscisic acid receptor PYR1: B1 Abscisic acid receptor PYR1 with I62Y, Q159F
B17: F159S: PYR1 mutant (protein, UniProt O49686 1-191, looked up, variant F159S)
Abscisic acid receptor PYR1: B1 Abscisic acid receptor PYR1 with Q159S
B18: S85Q: PYR1 mutant (protein, UniProt O49686 1-191, looked up, variant S85Q)
Abscisic acid receptor PYR1: B1 Abscisic acid receptor PYR1 with S85Q, Q159F
B19: F61P: PYR1 mutant (protein, UniProt O49686 1-191, looked up, variant F61P)
Abscisic acid receptor PYR1: B1 Abscisic acid receptor PYR1 with F61P, Q159F
B20: F61R: PYR1 mutant (protein, UniProt O49686 1-191, looked up, variant F61R)
Abscisic acid receptor PYR1: B1 Abscisic acid receptor PYR1 with F61R, Q159F
B21: F61N: PYR1 mutant (protein, UniProt O49686 1-191, looked up, variant F61N)
Abscisic acid receptor PYR1: B1 Abscisic acid receptor PYR1 with F61N, Q159F
B22: T162E: PYR1 mutant (protein, UniProt O49686 1-191, looked up, variant T162E)
Abscisic acid receptor PYR1: B1 Abscisic acid receptor PYR1 with Q159F, T162E
B23: F159W: PYR1 mutant (protein, UniProt O49686 1-191, looked up, variant F159W)
Abscisic acid receptor PYR1: B1 Abscisic acid receptor PYR1 with Q159W
B24: S85M: PYR1 mutant (protein, UniProt O49686 1-191, looked up, variant S85M)
Abscisic acid receptor PYR1: B1 Abscisic acid receptor PYR1 with S85M, Q159F
B25: F159E: PYR1 mutant (protein, UniProt O49686 1-191, looked up, variant F159E)
Abscisic acid receptor PYR1: B1 Abscisic acid receptor PYR1 with Q159E
B26: F159K: PYR1 mutant (protein, UniProt O49686 1-191, looked up, variant F159K)
Abscisic acid receptor PYR1: B1 Abscisic acid receptor PYR1 with Q159K
B27: I62G: PYR1 mutant (protein, UniProt O49686 1-191, looked up, variant I62G)
Abscisic acid receptor PYR1: B1 Abscisic acid receptor PYR1 with I62G, Q159F
B28: S85Y: PYR1 mutant (protein, UniProt O49686 1-191, looked up, variant S85Y)
Abscisic acid receptor PYR1: B1 Abscisic acid receptor PYR1 with S85Y, Q159F
B29: F159R: PYR1 mutant (protein, UniProt O49686 1-191, looked up, variant F159R)
Abscisic acid receptor PYR1: B1 Abscisic acid receptor PYR1 with Q159R
B30: S85R: PYR1 mutant (protein, UniProt O49686 1-191, looked up, variant S85R)
Abscisic acid receptor PYR1: B1 Abscisic acid receptor PYR1 with S85R, Q159F
B31: S85V: PYR1 mutant (protein, UniProt O49686 1-191, looked up, variant S85V)
Abscisic acid receptor PYR1: B1 Abscisic acid receptor PYR1 with S85V, Q159F
B32: S85P: PYR1 mutant (protein, listed as Arabidopsis thaliana)
chain: B1 Abscisic acid receptor PYR1 with S85P, Q159F
B33: F61E: PYR1 mutant (protein, UniProt O49686 1-191, looked up, variant F61E)
Abscisic acid receptor PYR1: B1 Abscisic acid receptor PYR1 with F61E, Q159F
B34: I62E: PYR1 mutant (protein, UniProt O49686 1-191, looked up, variant I62E)
Abscisic acid receptor PYR1: B1 Abscisic acid receptor PYR1 with I62E, Q159F
B35: S85N: PYR1 mutant (protein, UniProt O49686 1-191, looked up, variant S85N)
Abscisic acid receptor PYR1: B1 Abscisic acid receptor PYR1 with S85N, Q159F
B36: F61G: PYR1 mutant (protein, UniProt O49686 1-191, looked up, variant F61G)
Abscisic acid receptor PYR1: B1 Abscisic acid receptor PYR1 with F61G, Q159F
B37: S85L: PYR1 mutant (protein, UniProt O49686 1-191, looked up, variant S85L)
Abscisic acid receptor PYR1: B1 Abscisic acid receptor PYR1 with S85L, Q159F
B38: T162F: PYR1 mutant (protein, UniProt O49686 1-191, looked up, variant T162F)
Abscisic acid receptor PYR1: B1 Abscisic acid receptor PYR1 with Q159F, T162F
B39: F61I: PYR1 mutant (protein, UniProt O49686 1-191, looked up, variant F61I)
Abscisic acid receptor PYR1: B1 Abscisic acid receptor PYR1 with F61I, Q159F
B40: I62R: PYR1 mutant (protein, UniProt O49686 1-191, looked up, variant I62R)
Abscisic acid receptor PYR1: B1 Abscisic acid receptor PYR1 with I62R, Q159F
B41: F61S: PYR1 mutant (protein, UniProt O49686 1-191, looked up, variant F61S)
Abscisic acid receptor PYR1: B1 Abscisic acid receptor PYR1 with F61S, Q159F
B42: F61H: PYR1 mutant (protein, UniProt O49686 1-191, looked up, variant F61H)
Abscisic acid receptor PYR1: B1 Abscisic acid receptor PYR1 with F61H, Q159F
B43: S85C: PYR1 mutant (protein, UniProt O49686 1-191, looked up, variant S85C)
Abscisic acid receptor PYR1: B1 Abscisic acid receptor PYR1 with S85C, Q159F
B44: F159H: PYR1 mutant (protein, UniProt O49686 1-191, looked up, variant F159H)
Abscisic acid receptor PYR1: B1 Abscisic acid receptor PYR1 with Q159H
B45: K170P: PYR1 mutant (protein, UniProt O49686 1-191, looked up, variant K170P)
Abscisic acid receptor PYR1: B1 Abscisic acid receptor PYR1 with Q159F, K170P

System: HAB1
Assay: Yeast two hybrid of pBD-PYR1 site saturation mutants with pACT-HAB1 on 10 μM ABA, β-galactosidase staining
Type: cell-based, Arabidopsis
Parameters: key: x: Mutations in PYR1 that disrupt ABA-induced binding to PYR1 to HAB1
Conditions: S. cerevisiae Y190, 10 μM ABA; dead = lack of visible staining in comparison to wild type control
In short: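 Binding was read by β-galactosidase staining of chloroform-lysed colonies after 2 days at 30° C on SD (-Leu, -Trp) plates containing 10 μM (+)-ABA. Yeast strain Y190 carried the BD-PYR1 single-substitution mutants plus the AD-HAB1 fusion. Absence of staining versus the wild-type control defined "dead" mutants.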

Molecule	Mutations in PYR1 that disrupt ABA-induced binding to PYR1 to HAB1
B1	x
B2	x
B3	x
B4	x
B5	x
B6	x
B7	x
B8	x
B9	x
B10	x
B11	x
B12	x
B13	x
B14	x
B15	x
B16	x
B17	x
B18	x
B19	x
B20	x
B21	x
B22	x
B23	x

Molecule	Mutations in PYR1 that disrupt ABA-induced binding to PYR1 to HAB1
B24	x
B25	x
B26	x
B27	x
B28	x
B29	x
B30	x
B31	x
B32	x
B33	x
B34	x
B35	x
B36	x
B37	x
B38	x
B39	x
B40	x
B41	x
B42	x
B43	x
B44	x
B45	x
